Results reported in article PMC2173703 (The Journal of Cell Biology, 2003).
Where two headings read alike, the source gives them in different places. Where no end group is shown, it is not given here. [ ]: non-standard residue; d: D form. pY = N[C@@H](Cc1ccc(OP(=O)(O)O)cc1)C(=O)O; pT = C[C@@H](OP(=O)(O)O)[C@H](N)C(=O)O

B1: GST-talin head, wild type (human talin1 1–435) (domain or fragment)
chain: MVALSLKISIGNVVKTMQFEPSTMVYDACRIIRERIPEAPAGPPSDFGLFLSDDDPKKGIWLEAGKALDYYMLRNGDTMEYRKKQRPLKIRMLDGTVKTIMVDDSKTVTDMLMTICARIGITNHDEYSLVRELMEEKKEEITGTLRKDKTLLRDEKKMEKLKQKLHTDDELNWLDHGRTLREQGVEEHETLLLRRKFFYSDQNVDSRDPVQLNLLYVQARDDILNGSHPVSFDKACEFAGFQCQIQFGPHNEQKHKAGFLDLKDFLPKEYVKQKGERKIFQAHKNCGQMSEIEAKVRYVKLARSLKTYGVSFFLVKEKMKGKNKLVPRLLGITKECVMRVDEKTKEVIQEWNLTNIKRWAASPKSFTLDFGDYQDGYYSVQTTEGEQIAQLIAGYIDIILKKKKSKDHFGLEGDEESTMLEDSVSPKKSTVLQQQ

Assays:
[1] = test system: tyrosine phosphorylation of PIPKIγ661 (Src family kinases); format: cell-based; settings: HEK293T cells, 1 μM for 30 min at 37°C; Fig. 2 A
[2] = test system: integrin–talin interaction; settings: ref Martel et al., 2001; cited from earlier work
[3] = target: B1; experiment: pull-down
[4] = target: B1; experiment: pull-down; remark: listed apart in the source
[5] = target: T1, fluorescein-labeled Y644-phosphorylated PIPKIγ661 peptide; experiment: fluorescence polarisation
T1 peptide: fluorescein-CDERSWV[pY]SPLHYSAR

[6] = target: T2, fluorescein-labeled Y649-phosphorylated PIPKIγ661 peptide; experiment: fluorescence polarisation
T2 peptide: fluorescein-CDERSWVYSPLH[pY]SAR

Molecule: CC(C)(C)n1nc(-c2ccc(Cl)cc2)c2c(N)ncnc21 [PP2]
- inhibition of basal and FAK-induced tyrosine phosphorylation of PIPKIγ661 [1]: inhibited

Molecule: Phosphatidylinositol 4,5-bisphosphate [PI4,5P2]
- increase of the integrin–talin binding affinity [2]: ~10 fold

Molecule: CMNAKWDTGENPIYKSA [β1-integrin peptide β1InPN (nonphosphorylated)]
- binding result [3]: binds

Molecule: CDERSWVYSPLHYSAR [PIPKIγ661 peptide PN (nonphosphorylated)]
- binding result [4]: binds

Molecule: B1
- fold increase in binding affinity against the nonphosphorylated peptide [5]: ~15 fold
- fold increase in binding affinity against the nonphosphorylated peptide [6]: ~15 fold

Molecule: CMNAKWD[pT]GENPIYKSA [β1-integrin peptide β1InpT]
- binding result [3]: binds
